For assay [1], the system named is Hsp90 complexes in Mia-PaCa-2 cell extract. Briefly: Nano-LC-MS/MS of PU-beads pull-downs. The format is binding, human. Conditions: protein identified in PU-beads pull-down of Mia-PaCa-2 cell extract; QSTAR-Elite QTof MS. Summed up: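 They came from PU-bead pull-downs of pre-cleared lysates (control beads, overnight, 4 °C), eluted by boiling in 2% SDS, gel-separated and run by data-dependent nano-ESI QTof MS/MS.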

The subject of assay [2] is Hsp90 complexes in K562 cell extract. As to the kind of experiment: Nano-LC-MS/MS of PU-beads pull-downs. Conditions: protein identified in PU-beads pull-down of K562 cell extract, QSTAR-Elite QTof MS. The format is binding. Summed up:
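Proteins were identified by data-dependent nano LC-MS/MS (QTof, ESI) and Mascot searching (p<0.05), then reported as spectral counts and coverage via Scaffold. Inputs were PU-bead versus control-bead pull-downs from lysate pre-cleared with control beads overnight at 4 °C, eluted by boiling in 2% SDS.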

B1: NOB1 (protein, UniProt Q9ULX3 2-412, looked up)
RNA-binding protein NOB1: APVEHVVADAGAFLRHAALQDIGKNIYTIREVVTEIRDKATRRRLAVLPYELRFKEPLPEYVRLVTEFSKKTGDYPSLSATDIQVLALTYQLEAEFVGVSHLKQEPQKVKVSSSIQHPETPLHISGFHLPYKPKPPQETEKGHSACEPENLEFSSFMFWRNPLPNIDHELQELLIDRGEDVPSEEEEEEENGFEDRKDDSDDDGGGWITPSNIKQIQQELEQCDVPEDVRVGCLTTDFAMQNVLLQMGLHVLAVNGMLIREARSYILRCHGCFKTTSDMSRVFCSHCGNKTLKKVSVTVSDDGTLHMHFSRNPKVLNPRGLRYSLPTPKGGKYAINPHLTEDQRFPQLRLSQKARQKTNVFAPDYIAGVSPFVENDISSRSATLQVRDSTLGAGRRRLNPNASRKKFVKKR
Turning to B1, in assay [1], the “Number of Assigned Spectra, Mia-Paca 2” value was 0. Besides, in assay [2], the “Number of Assigned Spectra, K562 Prep 1” value worked out at 5 and the “Number of Assigned Spectra, K562 Prep 2” value was 0.

B2: VAC14 (protein, UniProt Q08AM6 1-782, looked up)
Protein VAC14 homolog: MNPEKDFAPLTPNIVRALNDKLYEKRKVAALEIEKLVREFVAQNNTVQIKHVIQTLSQEFALSQHPHSRKGGLIGLAACSIALGKDSGLYLKELIEPVLTCFNDADSRLRYYACEALYNIVKVARGAVLPHFNVLFDGLSKLAADPDPNVKSGSELLDRLLKDIVTESNKFDLVSFIPLLRERIYSNNQYARQFIISWILVLESVPDINLLDYLPEILDGLFQILGDNGKEIRKMCEVVLGEFLKEIKKNPSSVKFAEMANILVIHCQTTDDLIQLTAMCWMREFIQLAGRVMLPYSSGILTAVLPCLAYDDRKKSIKEVANVCNQSLMKLVTPEDDELDELRPGQRQAEPTPDDALPKQEGTASGGPDGSCDSSFSSGISVFTAASTERAPVTLHLDGIVQVLNCHLSDTAIGMMTRIAVLKWLYHLYIKTPRKMFRHTDSLFPILLQTLSDESDEVILKDLEVLAEIASSPAGQTDDPGPLDGPDLQASHSELQVPTPGRAGLLNTSGTKGLECSPSTPTMNSYFYKFMINLLKRFSSERKLLEVRGPFIIRQLCLLLNAENIFHSMADILLREEDLKFASTMVHALNTILLTSTELFQLRNQLKDLKTLESQNLFCCLYRSWCHNPVTTVSLCFLTQNYRHAYDLIQKFGDLEVTVDFLAEVDKLVQLIECPIFTYLRLQLLDVKNNPYLIKALYGLLMLLPQSSAFQLLSHRLQCVPNPELLQTEDSLKAAPKSQKADSPSIDYAELLQHFEKVQNKHLEVRHQRSGRGDHLDRRVVL
For B2, in assay [1], the “Number of Assigned Spectra, Mia-Paca 2” value is recorded as 0. In addition, in assay [2], the “Number of Assigned Spectra, K562 Prep 1” value was found to be 5 and the “Number of Assigned Spectra, K562 Prep 2” value is 2.

B3: NOP2 (protein, UniProt P46087 1-812, looked up)
28S rRNA …: MGRKLDPTKEKRGPGRKARKQKGAETELVRFLPAVSDENSKRLSSRARKRAAKRRLGSVEAPKTNKSPEAKPLPGKLPKGISAGAVQTAGKKGPQSLFNAPRGKKRPAPGSDEEEEEEDSEEDGMVNHGDLWGSEDDADTVDDYGADSNSEDEEEGEALLPIERAARKQKAREAAAGIQWSEEETEDEEEEKEVTPESGPPKVEEADGGLQINVDEEPFVLPPAGEMEQDAQAPDLQRVHKRIQDIVGILRDFGAQREEGRSRSEYLNRLKKDLAIYYSYGDFLLGKLMDLFPLSELVEFLEANEVPRPVTLRTNTLKTRRRDLAQALINRGVNLDPLGKWSKTGLVVYDSSVPIGATPEYLAGHYMLQGASSMLPVMALAPQEHERILDMCCAPGGKTSYMAQLMKNTGVILANDANAERLKSVVGNLHRLGVTNTIISHYDGRQFPKVVGGFDRVLLDAPCSGTGVISKDPAVKTNKDEKDILRCAHLQKELLLSAIDSVNATSKTGGYLVYCTCSITVEENEWVVDYALKKRNVRLVPTGLDFGQEGFTRFRERRFHPSLRSTRRFYPHTHNMDGFFIAKFKKFSNSIPQSQTGNSETATPTNVDLPQVIPKSENSSQPAKKAKGAAKTKQQLQKQQHPKKASFQKLNGISKGADSELSTVPSVTKTQASSSFQDSSQPAGKAEGIREPKVTGKLKQRSPKLQSSKKVAFLRQNAPPKGTDTQTPAVLSPSKTQATLKPKDHHQPLGRAKGVEKQQLPEQPFEKAAFQKQNDTPKGPQPPTVSPIRSSRPPPAKRKKSQSRGNSQLLLS
Regarding B3, in assay [1], the “Number of Assigned Spectra, Mia-Paca 2” value is on record as 7. Besides, in assay [2], the “Number of Assigned Spectra, K562 Prep 1” value stood at 0 and the “Number of Assigned Spectra, K562 Prep 2” value is listed as 0.

The record behind these values is US20220074941A1, “HSP90 COMBINATION THERAPY” (Sloan-Kettering Institute for Cancer Research, priority 2011, published 2022).
